Measurements published in PMC5520057, “Modulation of nongenomic activation of PI3K signalling by tetramerization of N-terminally-cleaved RXRα” (Nature Communications, 2017).
“And” between values parts separate entries of the source, which are not always exact repeats. Equal values may be shown once.

B1: His-RXRα-LBD [human] / itself (parent)
chain: TSSANEDMPVERILEAELAVEPKTETYVEANMGLNPSSPNDPVTNICQAADKQLFTLVEWAKRIPHFSELPLDDQVILLRAGWNELLIASFSHRSIAVKDGILLATGLHVHRNSAHSAGVGAIFDRVLTELVSKMRDMQMDKTELGCLRAIVLFNPDSKGLSNPAEVEALREKVYASLEAYCKHKYPEQPGRFAKLLLRLPALRSIGLKCLEHLFFFKLIGDTPIDTFLMEMLEAPHQMT

Variants of: B1
Assay: non-denaturing polyacrylamide gel electrophoresis, densitometry
Conditions: with itself

screen value (DMSO (no K-80003, no 9-cis-RA))	screen value (K-80003)	screen value (K-80003 + 9-cis-RA)	Variant
47% and 53%	55% and 45%		TSSANEDMPVERILEAELAVEPKTETYVEANMGLNPSSPNDPVTNICQAADKQLFTLVEWAKRIPHFSELPLDDQVILLRAGWNELLIASFSHRSIAVKDGILLATGLHVHRNSAHSAGVGAIFDRVLTELVSKMRDMQMDKTELGCLRAIVLFNPDSKGLSNPAEVEALREKVYASLEAYCKHKYPEQPGRFAKLLLRLPALRSIGLKCLEHLFFAKLIGDTPIDTFLMEMLEAPHQMT [chain 1 F217A]
53% and 47%	58% and 42%		TSSANEDMPVERILEAELAVEPKTETYVEANMGLNPSSPNDPVTNICQAADKELFTLVEWAKRIPHFSELPLDDQVILLRAGWNELLIASFSHRSIAVKDGILLATGLHVHRNSAHSAGVGAIFDRVLTELVSKMRDMQMDKTELGCLRAIVLFNPDSKGLSNPAEVEALREKVYASLEAYCKHKYPEQPGRFAKLLLRLPALRSIGLKCLEHLFFFKLIGDTPIDTFLMEMLEAPHQMT [chain 1 Q53E]
54% and 46%	43% and 57%	59% and 41%	TSSANEDMPVERILEAELAVEPKTETYVEANMGLNPSSPNDPVTNICQAADKQLFTLVEWAKRIPHFSELPLDDQVILLRAGWNELLIASFSHRSIAVKDGILLATGLHVHRNSAHSAGVGAIFDRVLTELVSKMRDMQMDKTELGCLRAIVLFNPDSKGLSNPAEVEALREKVYASLEAYCKHKYPEQPGRFAKLLLRLPALRSIGLKCDEHLFFFKLIGDTPIDTFLMEMLEAPHQMT [chain 1 L211D]
